Patent US20260265360A1, “USE OF ANTI-FAM19A5 ANTAGONISTS FOR TREATING HEARING DISORDERS” (NEURACLE SCIENCE CO., LTD., priority 2023, published 2026)

B1: P1-A08: anti-FAM19A5 antibody; VH SEQ ID NO: 160, VL SEQ ID NO: 171 (antibody, V domains shown)
VH: QSLEESGGRLVTPGTPLTLTCTASGFSLSTYYMSWVRQAPGKGLEWIGIVYPSGTTYYANWAKGRFTISTASTTVDLMITSPTTEDTATYFCARGDSFGYGLWGPGTLVTVSS
VL: ELVLTQSPSVQVNLGQTVSLTCTADTLSRSYASWYQQKPGQAPVLLIYRDTSRPSGVPDRFSGSSSGNTATLTISGAQAGDEADYYCATSDGSGSNYQYVFGGGTQLTVT
modifications: P1-A08 VH; P1-A08 VL
B2: P1-F02: anti-FAM19A5 antibody; VH SEQ ID NO: 161, VL SEQ ID NO: 172 (antibody, V domains shown)
VH: QSLEESGGRLVTPGTPLTLTCTASGFSLSNYYMGWVRQAPGEGLEWIGIIYASGSTYYASWAKGRFTISKTSTTVDLKMTSLTTEDTATYFCARIDIGVGDYGWAYDRLDLWGQGTLVTVSS
VL: ELDMTQTPPSLSASVGETVRIRCLASEDIYSGISWYQQKPGKPPTLLIYGASNLESGVPPRFSGSGSGTDYTLTIGGVQAEDAATYYCLGGYSYSSITFGAGTNVEIK
modifications: P1-F02 VH; P1-F02 VL
B3: P2-A01: anti-FAM19A5 antibody; VH SEQ ID NO: 162, VL SEQ ID NO: 173 (antibody, V domains shown)
VH: QEQLVESGGRLVTPGTPLTLSCTASGFFLSGYYMSWVRQAPGKGLEWIGIIYPSGSTDYASWAKGRFTISKTSTTVDLKITTPTTEDTATYFCARVAGYVGYGYETFFDIWGPGTLVTVSL
VL: ELVMTQTPPSLSASVGETVRIRCLASEDIYSGISWYQQKPGKPPTLLIYGASNLESGVPPRFSGSGSGSDYTLTIGGVQAEDAATYYCLGGVTYSSTGTHLTFGAGTNVEIK
modifications: P2-A01 VH; P2-A01 VL
B4: P2-F07: anti-FAM19A5 antibody; VH SEQ ID NO: 164, VL SEQ ID NO: 175 (antibody, V domains shown)
VH: QSLEESGGRLVTPGTPLTLTCTASGFSLSSYYMNWVRQAPGKGLEWIGIIYPSGTTYYAGWAKGRFTISKTSTTVDLKITSPTSEDTATYFCARTVSGYFDIWGPGTLVTVSL
VL: ELDLTQTPPSLSASVGGTVTINCLASEDIYSALAWYQQKPGKPPTLLISGTSNLESGVPPRFSGSGSGTDYTLTIGGVQAEDAATYFCQGYSSYPLTFGAGTNVEIK
modifications: P2-F07 VH; P2-F07 VL

These molecules were tested against T1, FAM19A5 mutants M1 to M8 (Homo sapiens, UniProt Q7Z5A7) (assay: Epitope mapping ELISA with FAM19A5 mutants M1-M8).
T1 construct: made in house; host or cells: phage display with helper phage
T1 sequence (Q7Z5A7 with tags, fused parts or gaps isoform Q7Z5A7-2, change not shown): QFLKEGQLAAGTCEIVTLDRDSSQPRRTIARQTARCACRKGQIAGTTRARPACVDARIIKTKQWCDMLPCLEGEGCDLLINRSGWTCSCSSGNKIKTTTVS
Type: binding
Procedure: To further characterize the binding epitopes of the anti-FAM19A5 antibodies disclosed in the present disclosure, the amino acid sequences for the different FAM19 family members (i.e., FAM19A1-5) were aligned. […] The amino acid sequences of these regions were replaced with the consensus sequence of the corresponding regions for the FAM19A1-4 proteins. See Table 13 (the mutated amino acid residues are bolded and underlined).
The mutant FAM19A5-expressing phages were prepared as follows. To prepare the media for phage culture, 55.6 ml of 2M Glucose (D-(+)-Glucose, Sigma), 5 mL of 1M MgCl2 (Magnesium chloride, Junsei) 1 mL of 34 mg/mL chloramphenicol (Sigma) were added to 2×YT media. Colonies obtained through mono-phage ELISA were selected and placed in 5 mL of prepared media (2×YT-GMC) to be cultured for 16 hours at 37° C. with shaking incubator (VS-8480, Vision). 100 μL of each culture was transferred to 10 mL 2×YT-GMC individually which were cultured at 37° C. in the incubator until detection value at O.D. 600 nm reached 0.5. Once detection value has reached 0.5 at O.D. 600 nm, 5 mL of each culture were obtained as samples to be infected. Following sample preparation, 50 μL of […] was added to individual samples then incubated at 37° C. without shaking for 30 minutes and with shaking for additional 30 minutes. Individual cultures were centrifuged for 15 minutes at 3,850 rpm using Micro centrifuge (Micro12, Hanil). The supernatants of centrifuged cultures were removed to be kept separate and replaced with 5 mL of 2×YT media containing 1 mL of IM IPTG (AG Scientific), 5 mL of 1M MgCl2.1 ml of 70 μg/μL kanamycin (Biopure) and 1 mL of Chloramphenicol. The resulting pellets were dispersed thoroughly in newly added media followed by incubation at 30° C. for 16 hours with stirring.

Binding to FAM19A5 mutant M8, failed to bind:
B1
B2
B3
B4
